In paper PMC10556141:

Biological target: T1, S. cerevisiae Rad51 (S. cerevisiae), P25454
T1 chain: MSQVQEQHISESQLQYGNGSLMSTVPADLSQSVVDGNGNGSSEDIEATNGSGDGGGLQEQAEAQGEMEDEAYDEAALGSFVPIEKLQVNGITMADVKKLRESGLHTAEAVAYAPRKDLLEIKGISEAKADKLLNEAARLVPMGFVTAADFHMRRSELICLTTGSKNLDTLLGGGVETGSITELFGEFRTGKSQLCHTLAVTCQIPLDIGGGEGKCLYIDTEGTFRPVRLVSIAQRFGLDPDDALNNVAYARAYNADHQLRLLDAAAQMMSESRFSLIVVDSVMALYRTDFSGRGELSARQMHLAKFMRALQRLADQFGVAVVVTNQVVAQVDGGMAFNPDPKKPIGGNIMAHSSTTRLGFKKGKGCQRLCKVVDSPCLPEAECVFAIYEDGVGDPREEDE
Assay: mass photometry; TwoMP instrument; protein diluted to about 8-10 nM decamers in the well; 50 mM Tris-acetate pH 7.5, 50 mM KCl, 5 mM MgCl2
Details: remark: other sources report otherwise

stoichiometry N: 15
B1: S. cerevisiae Rad51, P25454 1-400 (natural protein)
chain: T1 chain
